Blank lines part the entries; values can stand above or below the substance they belong to.
Assays:
[1] = molecular target: Histones; assay: AtheNA, Ab 12.5 ug/ml
[2] = molecular target: Sm (Smith antigen); assay: AtheNA, Ab 12.5 ug/ml
[3] = molecular target: T1, Centromere B (UniProt P07199); assay: AtheNA, Ab 12.5 ug/ml
T1 sequence (looked up): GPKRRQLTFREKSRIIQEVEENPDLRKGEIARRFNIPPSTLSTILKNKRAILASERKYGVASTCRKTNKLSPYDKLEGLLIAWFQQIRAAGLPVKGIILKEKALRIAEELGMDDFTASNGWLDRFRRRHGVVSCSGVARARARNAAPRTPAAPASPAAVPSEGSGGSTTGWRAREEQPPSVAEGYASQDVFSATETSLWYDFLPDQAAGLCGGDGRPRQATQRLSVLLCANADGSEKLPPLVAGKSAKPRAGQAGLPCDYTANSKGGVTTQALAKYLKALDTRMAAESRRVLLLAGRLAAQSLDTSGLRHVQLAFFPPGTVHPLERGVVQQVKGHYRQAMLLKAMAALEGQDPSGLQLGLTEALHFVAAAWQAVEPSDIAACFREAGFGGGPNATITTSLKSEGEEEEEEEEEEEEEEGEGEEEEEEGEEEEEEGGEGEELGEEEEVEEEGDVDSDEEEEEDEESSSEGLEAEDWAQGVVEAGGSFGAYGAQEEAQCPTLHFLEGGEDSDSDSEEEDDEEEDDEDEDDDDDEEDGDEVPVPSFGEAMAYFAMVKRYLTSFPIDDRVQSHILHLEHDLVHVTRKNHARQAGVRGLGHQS

[4] = molecular target: SSB (UniProt P05455); assay: AtheNA, Ab 12.5 ug/ml
Sequence of SSB (P05455 whole entry): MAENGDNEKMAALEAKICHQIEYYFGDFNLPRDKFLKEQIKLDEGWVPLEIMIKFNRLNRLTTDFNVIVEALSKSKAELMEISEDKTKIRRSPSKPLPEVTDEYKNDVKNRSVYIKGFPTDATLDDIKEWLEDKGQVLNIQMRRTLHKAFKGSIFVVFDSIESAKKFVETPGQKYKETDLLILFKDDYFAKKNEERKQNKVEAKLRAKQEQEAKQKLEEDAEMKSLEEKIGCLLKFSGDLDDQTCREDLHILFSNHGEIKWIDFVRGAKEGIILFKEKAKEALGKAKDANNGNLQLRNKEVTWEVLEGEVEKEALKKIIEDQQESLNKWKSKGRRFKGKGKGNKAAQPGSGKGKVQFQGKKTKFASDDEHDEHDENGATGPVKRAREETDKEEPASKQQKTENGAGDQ

[5] = molecular target: RNP (ribonucleoprotein); assay: AtheNA, Ab 12.5 ug/ml
[6] = molecular target: Scl-70 (UniProt P11387); assay: AtheNA, Ab 12.5 ug/ml
Sequence of Scl-70 (P11387 2-765 limits assumed): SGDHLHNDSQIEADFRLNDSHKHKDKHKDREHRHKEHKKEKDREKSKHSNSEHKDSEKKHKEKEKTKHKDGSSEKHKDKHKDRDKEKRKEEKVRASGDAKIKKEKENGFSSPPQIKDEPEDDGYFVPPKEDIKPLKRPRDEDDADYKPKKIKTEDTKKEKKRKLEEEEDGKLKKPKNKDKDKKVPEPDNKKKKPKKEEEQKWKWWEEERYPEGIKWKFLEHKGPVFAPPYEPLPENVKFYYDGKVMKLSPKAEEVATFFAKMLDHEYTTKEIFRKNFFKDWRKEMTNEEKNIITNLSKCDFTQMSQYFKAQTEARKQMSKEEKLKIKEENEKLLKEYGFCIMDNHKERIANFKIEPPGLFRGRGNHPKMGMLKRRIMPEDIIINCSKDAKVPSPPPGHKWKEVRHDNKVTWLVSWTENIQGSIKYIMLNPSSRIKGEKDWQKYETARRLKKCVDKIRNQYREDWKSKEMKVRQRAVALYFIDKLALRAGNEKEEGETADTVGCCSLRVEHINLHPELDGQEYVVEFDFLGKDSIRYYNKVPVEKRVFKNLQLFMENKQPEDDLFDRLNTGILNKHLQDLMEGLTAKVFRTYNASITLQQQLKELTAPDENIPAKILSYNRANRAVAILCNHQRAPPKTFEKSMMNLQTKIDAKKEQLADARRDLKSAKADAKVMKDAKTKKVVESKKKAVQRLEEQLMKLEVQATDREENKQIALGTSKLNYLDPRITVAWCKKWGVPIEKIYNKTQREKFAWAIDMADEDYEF

[7] = molecular target: T2, Jo-1 (UniProt P12081); assay: AtheNA, Ab 12.5 ug/ml
T2 sequence (looked up): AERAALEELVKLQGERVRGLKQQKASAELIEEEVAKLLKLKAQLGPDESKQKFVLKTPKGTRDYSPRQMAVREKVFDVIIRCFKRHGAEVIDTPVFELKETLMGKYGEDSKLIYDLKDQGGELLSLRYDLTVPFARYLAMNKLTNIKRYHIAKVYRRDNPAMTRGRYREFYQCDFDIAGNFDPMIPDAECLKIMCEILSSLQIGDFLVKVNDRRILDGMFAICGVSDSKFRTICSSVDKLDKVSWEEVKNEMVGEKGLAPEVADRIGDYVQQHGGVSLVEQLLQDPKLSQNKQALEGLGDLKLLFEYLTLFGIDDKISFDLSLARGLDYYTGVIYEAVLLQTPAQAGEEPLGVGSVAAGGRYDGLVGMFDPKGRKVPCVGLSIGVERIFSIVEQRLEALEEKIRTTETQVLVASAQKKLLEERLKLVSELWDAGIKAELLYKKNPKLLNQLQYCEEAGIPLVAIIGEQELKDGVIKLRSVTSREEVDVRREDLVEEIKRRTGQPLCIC

[8] = molecular target: SSA; assay: AtheNA, Ab 12.5 ug/ml
[9] = molecular target: Histones; assay: AtheNA, Ab 25 ug/ml
[10] = molecular target: Sm (Smith antigen); assay: AtheNA, Ab 25 ug/ml
[11] = molecular target: T1, Centromere B; assay: AtheNA, Ab 25 ug/ml
[12] = molecular target: SSB (UniProt P05455); assay: AtheNA, Ab 25 ug/ml
[13] = molecular target: RNP (ribonucleoprotein); assay: AtheNA, Ab 25 ug/ml
[14] = molecular target: Scl-70 (UniProt P11387); assay: AtheNA, Ab 25 ug/ml
[15] = molecular target: T2, Jo-1; assay: AtheNA, Ab 25 ug/ml
[16] = molecular target: SSA; assay: AtheNA, Ab 25 ug/ml
[17] = molecular target: SSB (UniProt P05455); assay: AtheNA, Ab 50 ug/ml
[18] = molecular target: T2, Jo-1; assay: AtheNA, Ab 50 ug/ml
[19] = molecular target: Histones; assay: AtheNA, Ab 25 ug/ml; remark: listed apart in the source
[20] = molecular target: Sm (Smith antigen); assay: AtheNA, Ab 25 ug/ml; remark: listed apart in the source
[21] = molecular target: T1, Centromere B; assay: AtheNA, Ab 25 ug/ml; remark: listed apart in the source
[22] = molecular target: SSB (UniProt P05455); assay: AtheNA, Ab 25 ug/ml; remark: listed apart in the source
[23] = molecular target: RNP (ribonucleoprotein); assay: AtheNA, Ab 25 ug/ml; remark: listed apart in the source
[24] = molecular target: Scl-70 (UniProt P11387); assay: AtheNA, Ab 25 ug/ml; remark: listed apart in the source
[25] = molecular target: T2, Jo-1; assay: AtheNA, Ab 25 ug/ml; remark: listed apart in the source
[26] = molecular target: SSA; assay: AtheNA, Ab 25 ug/ml; remark: listed apart in the source
[27] = molecular target: Histones; assay: AtheNA, Ab 6.25 ug/ml
[28] = molecular target: Sm (Smith antigen); assay: AtheNA, Ab 6.25 ug/ml
[29] = molecular target: T1, Centromere B; assay: AtheNA, Ab 6.25 ug/ml
[30] = molecular target: SSB (UniProt P05455); assay: AtheNA, Ab 6.25 ug/ml
[31] = molecular target: RNP (ribonucleoprotein); assay: AtheNA, Ab 6.25 ug/ml
[32] = molecular target: Scl-70 (UniProt P11387); assay: AtheNA, Ab 6.25 ug/ml
[33] = molecular target: T2, Jo-1; assay: AtheNA, Ab 6.25 ug/ml
[34] = molecular target: SSA; assay: AtheNA, Ab 6.25 ug/ml
[35] = molecular target: SSB (UniProt P05455); assay: AtheNA, Ab 50 ug/ml; remark: listed apart in the source
[36] = molecular target: T2, Jo-1; assay: AtheNA, Ab 50 ug/ml; remark: listed apart in the source
[37] = molecular target: Histones; assay: AtheNA, Ab 50 ug/ml
[38] = molecular target: Sm (Smith antigen); assay: AtheNA, Ab 50 ug/ml
[39] = molecular target: T1, Centromere B; assay: AtheNA, Ab 50 ug/ml
[40] = molecular target: RNP (ribonucleoprotein); assay: AtheNA, Ab 50 ug/ml
[41] = molecular target: Scl-70 (UniProt P11387); assay: AtheNA, Ab 50 ug/ml
[42] = molecular target: SSA; assay: AtheNA, Ab 50 ug/ml

- Athena reading (relative luminescence units) [1]: 7
- Athena reading (relative luminescence units) [2]: 3
- Athena reading (relative luminescence units) [3]: 1
- Athena reading (relative luminescence units) [4]: 199
- Athena reading (relative luminescence units) [5]: 3
- Athena reading (relative luminescence units) [6]: 0
- Athena reading (relative luminescence units) [7]: 131
- Athena reading (relative luminescence units) [8]: 21
- Athena reading (relative luminescence units) [9]: 24
- Athena reading (relative luminescence units) [10]: 46
- Athena reading (relative luminescence units) [11]: 9
- Athena reading (relative luminescence units) [12]: 189
- Athena reading (relative luminescence units) [13]: 20
- Athena reading (relative luminescence units) [14]: 4
- Athena reading (relative luminescence units) [15]: 206
- Athena reading (relative luminescence units) [16]: 81
- Athena reading (relative luminescence units) [17]: 263
- Athena reading (relative luminescence units) [18]: 190
- Athena reading (relative luminescence units) [19]: 10
- Athena reading (relative luminescence units) [20]: 2
- Athena reading (relative luminescence units) [21]: 3
- Athena reading (relative luminescence units) [22]: 227
- Athena reading (relative luminescence units) [23]: 3
- Athena reading (relative luminescence units) [24]: 1
- Athena reading (relative luminescence units) [25]: 160
- Athena reading (relative luminescence units) [26]: 33
- Athena reading (relative luminescence units) [27]: 6
- Athena reading (relative luminescence units) [28]: 3
- Athena reading (relative luminescence units) [29]: 2
- Athena reading (relative luminescence units) [30]: 178
- Athena reading (relative luminescence units) [31]: 3
- Athena reading (relative luminescence units) [32]: 1
- Athena reading (relative luminescence units) [33]: 113
- Athena reading (relative luminescence units) [34]: 17
- Athena reading (relative luminescence units) [35]: 207
- Athena reading (relative luminescence units) [36]: 227
Substance: 4E10 IgG1 (antibody)

- Athena reading (relative luminescence units) [1]: 4
- Athena reading (relative luminescence units) [2]: 6
- Athena reading (relative luminescence units) [3]: 3
- Athena reading (relative luminescence units) [4]: 4
- Athena reading (relative luminescence units) [5]: 3
- Athena reading (relative luminescence units) [6]: 3
- Athena reading (relative luminescence units) [7]: 5
- Athena reading (relative luminescence units) [8]: 9
- Athena reading (relative luminescence units) [9]: 3
- Athena reading (relative luminescence units) [10]: 6
- Athena reading (relative luminescence units) [11]: 3
- Athena reading (relative luminescence units) [12]: 3
- Athena reading (relative luminescence units) [13]: 4
- Athena reading (relative luminescence units) [14]: 3
- Athena reading (relative luminescence units) [15]: 5
- Athena reading (relative luminescence units) [16]: 9
- Athena reading (relative luminescence units) [27]: 2
- Athena reading (relative luminescence units) [28]: 5
- Athena reading (relative luminescence units) [29]: 2
- Athena reading (relative luminescence units) [30]: 5
- Athena reading (relative luminescence units) [31]: 2
- Athena reading (relative luminescence units) [32]: 3
- Athena reading (relative luminescence units) [33]: 3
- Athena reading (relative luminescence units) [34]: 10
Substance: CH235UA/293i (antibody)

- Athena reading [1]: 4
- Athena reading [2]: 5
- Athena reading [3]: 3
- Athena reading [4]: 6
- Athena reading [5]: 3
- Athena reading [6]: 2
- Athena reading [7]: 6
- Athena reading [8]: 3
- Athena reading [37]: 9
- Athena reading [38]: 5
- Athena reading [39]: 10
- Athena reading [17]: 6
- Athena reading [40]: 2
- Athena reading [41]: 4
- Athena reading [18]: 5
- Athena reading [42]: 5
- Athena reading [19]: 4
- Athena reading [20]: 5
- Athena reading [21]: 5
- Athena reading [22]: 6
- Athena reading [23]: 2
- Athena reading [24]: 1
- Athena reading [25]: 3
- Athena reading [26]: 3
- Athena reading [27]: 2
- Athena reading [28]: 3
- Athena reading [29]: 2
- Athena reading [30]: 1
- Athena reading [31]: 2
- Athena reading [32]: 2
- Athena reading [33]: 5
- Athena reading [34]: 5
Substance: DH270IA1 (antibody)

- Athena reading (relative luminescence units) [1]: 3
- Athena reading (relative luminescence units) [2]: 7
- Athena reading (relative luminescence units) [3]: 2
- Athena reading (relative luminescence units) [4]: 5
- Athena reading (relative luminescence units) [5]: 3
- Athena reading (relative luminescence units) [6]: 3
- Athena reading (relative luminescence units) [7]: 6
- Athena reading (relative luminescence units) [8]: 2
- Athena reading (relative luminescence units) [9]: 2
- Athena reading (relative luminescence units) [10]: 4
- Athena reading (relative luminescence units) [11]: 2
- Athena reading (relative luminescence units) [12]: 4
- Athena reading (relative luminescence units) [13]: 0
- Athena reading (relative luminescence units) [15]: 4
- Athena reading (relative luminescence units) [16]: 11
- Athena reading (relative luminescence units) [19]: 5
- Athena reading (relative luminescence units) [20]: 3
- Athena reading (relative luminescence units) [21]: 4
- Athena reading (relative luminescence units) [22]: 7
- Athena reading (relative luminescence units) [23]: 4
- Athena reading (relative luminescence units) [24]: 2
- Athena reading (relative luminescence units) [25]: 2
- Athena reading (relative luminescence units) [26]: 3
- Athena reading (relative luminescence units) [27]: 3
- Athena reading (relative luminescence units) [28]: 2
- Athena reading (relative luminescence units) [29]: 2
- Athena reading (relative luminescence units) [30]: 5
- Athena reading (relative luminescence units) [31]: 3
- Athena reading (relative luminescence units) [32]: 2
- Athena reading (relative luminescence units) [33]: 1
- Athena reading (relative luminescence units) [34]: 2
Substance: synagis (antibody)

Reference: patent US10344077
